# Laboratory results published in patent publication US8460664 (ACADEMIA SINICA, dated 2013).
# T1: P1 peptide (human)
# T1 construct: Synthetic peptide
# T1 peptide: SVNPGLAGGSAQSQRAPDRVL
# T2: P3 peptide (human)
# T2 peptide: GAGRADWPGPPELDV
# Experiments:
# [1] = molecular target: mIgE.FcL on transfected Ramos cells (human, UniProt P01854 104-546, limits assumed); assay: cell-based or functional assay
# [2] = molecular target: T3, mIgE.FcS on transfected Ramos cells (human, UniProt P01854-3 104-494, limits assumed); assay: flow cytometry, hybridoma supernatants
# T3 construct: domain: CH2 domain through the cytoplasmic end of mεS (CH2-CM), on cells; Lacks the CεmX domain; It forms complexes with the native coreceptors of Ramos cells; also called Ramos cells expressing mIgE.FcS; mεS(CH2-CM)
# Source text: (§2) We further tested the ability of various CεmX-specific monoclonal antibodies to bind to CHO and Ramos cell lines that were transfected with either recombinant DNA encoding mε_{L(CH2-CM)} or mε_{S(CH2-CM)}. […] The transfected two Ramos cell lines respectively produced mIgE.Fc_L or mIgE.Fc_S, both of which form complexes with their native coreceptors. To investigate the binding of anti-CεmX mAbs to native CεmX, CHO or Ramos cells expressing mIgE.Fc_L or mIgE.Fc_S were resuspended in FACS buffer [PBS, 1% FBS, 0.1% sodium azide, and 2 mM EDTA (pH 8.0)] at a cell density of 10^7 cells/ml. 10^6 cells were then incubated for 30 min on ice with 100 μl of hybridoma supernatants, followed by washing with FACS buffer. Bound antibodies were detected by incubation for 30 minutes on ice with FITC-labeled rabbit F(ab')_2 fragment specific for mouse IgG (AbD Secrotec), followed by washing twice with FACS buffer prior to analysis. Flow cytometry experiments were performed using a FACSCanto II flow cytometer (BD Bioscience) and analyzed using FCSExpress software (De Novo Software).
# [3] = molecular target: T4, mIgE.FcS on transfected CHO cells (human, UniProt P01854-3 104-494, limits assumed); assay: flow cytometry, hybridoma supernatants
# T4 construct: domain: CH2 domain through the cytoplasmic end of mεS (CH2-CM), on cells; Lacks the CεmX domain; No coreceptors are present in CHO cells; also called CHO cells expressing mIgE.FcS; mεS(CH2-CM)
# Source text: as §2
# [4] = molecular target: T1, P1 peptide; assay: ELISA, 1 µg/ml antibody on coated peptide (500 ng/well)
# Experimental: (§1) To explore the specificity of anti-CεmX mAbs to CεmX, the various CεmX-specific clones were then tested for reactivity with 3 synthetic peptides, representing 3 consecutive segments of CεmX, divided by a C residue located at residue #18 and a CHC segment at residues #39-41. Specifically, P1 peptide contains the last 4 amino acid residues of CH4 of Mε and first 17 amino acid residues (#1-17), namely, […] (SEQ ID NO:2), of CεmX; P2 peptide contains 20 amino acid residues #19-38, namely, […] (SEQ ID NO:3), of CεmX; P3 peptide contains the terminal 11 amino acid residues (#42-52), namely, […]_(SEQ ID NO:4), of CεmX and first 4 amino acid residues of the consecutive migis region, namely, the N-terminal extracellular region of the membrane anchor peptide of Mε chain. All peptides were synthesized at Genomics Research Center, Academia Sinica (Taipei, Taiwan). The peptides were reconstituted with PBS at a concentration of 10 mg/ml. All peptides were coated on 96-well MaxiSorp plates at 500 ng/well in 0.1M NaCO_3 (pH 9.6) at 4° C. overnight. Coated wells were blocked by 200 μl/well of 1% BSA in PBS at room temperature for 1 hour. Plates were washed three times with 200 μl/well of PBS with 0.05% Tween-20, followed by adding 100 μl of 1 μg/ml anti-CεmX mAbs to wells.
# [5] = molecular target: T2, P3 peptide; assay: ELISA on coated peptide (500 ng/well)
# Experimental: as §1
# Sequence of mIgE.FcL on transfected Ramos cells (P01854 104-546 limits assumed): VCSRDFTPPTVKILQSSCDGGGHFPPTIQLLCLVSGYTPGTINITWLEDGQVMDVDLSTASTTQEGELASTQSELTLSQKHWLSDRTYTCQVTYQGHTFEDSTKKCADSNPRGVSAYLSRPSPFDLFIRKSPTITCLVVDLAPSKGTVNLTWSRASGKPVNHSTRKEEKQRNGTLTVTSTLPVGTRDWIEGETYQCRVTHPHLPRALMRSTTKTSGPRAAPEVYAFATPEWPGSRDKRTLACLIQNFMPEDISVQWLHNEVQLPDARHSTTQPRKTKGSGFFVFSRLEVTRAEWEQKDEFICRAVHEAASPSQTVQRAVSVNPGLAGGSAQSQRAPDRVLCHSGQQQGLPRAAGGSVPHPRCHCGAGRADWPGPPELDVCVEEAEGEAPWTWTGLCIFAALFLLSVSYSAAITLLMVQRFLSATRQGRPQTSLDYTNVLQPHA
# T3 sequence (P01854 other isoform, or with tags, fused parts or gaps limits assumed): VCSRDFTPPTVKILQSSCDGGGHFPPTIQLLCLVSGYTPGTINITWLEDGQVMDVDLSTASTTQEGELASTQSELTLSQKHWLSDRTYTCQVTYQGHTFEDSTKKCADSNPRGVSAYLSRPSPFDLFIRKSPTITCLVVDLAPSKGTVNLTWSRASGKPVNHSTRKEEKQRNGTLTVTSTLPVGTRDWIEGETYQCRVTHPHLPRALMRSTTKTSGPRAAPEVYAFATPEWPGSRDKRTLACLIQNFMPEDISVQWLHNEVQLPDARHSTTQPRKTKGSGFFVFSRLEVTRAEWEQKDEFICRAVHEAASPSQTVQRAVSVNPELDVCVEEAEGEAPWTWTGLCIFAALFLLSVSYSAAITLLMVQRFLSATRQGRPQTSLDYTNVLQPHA
# T4 sequence (P01854 other isoform, or with tags, fused parts or gaps limits assumed): as above
"ADCC, specific lysis at an E/T ratio of 50 (antibody 1 µg/ml, PBMC effectors) [1]",binding result [2],binding result [3],binding result [4],binding result [5],Binder
≤ 60%,,,,,"chimeric 4B12 (antibody, V domains shown) VH: DVQLQESGPGLVKPSQSLSLTCTVTGYSITSDYAWNWIRQFPGNKLEWMGSISYSGITGYNPSLKSRISVTRDTSKNQFFLQLNSVTTEDTATYYCARMGYDGLAYWGHGTTVTVSA VL: DVLMTQTPLSLPVSLGDQASISCRSSQSIVHSNGNTYLEWYLQKPGQSPKLLIYKVSNRFSGVPDRFSGSGSGTDFTFKISRVEAEDLGVYYCFQGSHVPPTFGGGTKLEIKR"
,no binding,no binding,binds,no binding (tested: 1 µg/ml),"mouse monoclonal antibody 4B12 (antibody, V domains shown, Mouse hybridoma IgG, detected with anti-mouse IgG; also called parental mouse 4B12) VH: DVQLQESGPGLVKPSQSLSLTCTVTGYSITSDYAWNWIRQFPGNKLEWMGSISYSGITGYNPSLKSRISVTRDTSKNQFFLQLNSVTTEDTATYYCARMGYDGLAYWGHGTTVTVSA VL: DVLMTQTPLSLPVSLGDQASISCRSSQSIVHSNGNTYLEWYLQKPGQSPKLLIYKVSNRFSGVPDRFSGSGSGTDFTFKISRVEAEDLGVYYCFQGSHVPPTFGGGTKLEIKR"
